According to paper PMC10078426:

How the values were obtained:
[1] = molecular target: human IgG from serum (human) [IgG part: P01857]; assay: SPR; preparation #2
[2] = molecular target: human IgG from serum (human) [IgG part: P01857]; assay: SPR; preparation #1
[3] = molecular target: human IgG from serum (human) [IgG part: P01857]; assay: SPR

Substance	Kd [1] [nM]	Kd [2] [nM]	Kd [3] [nM]
protein G: β-galactosidase fusion protein (from UniProt P19909)	41.8	33.4	
protein G:HRP (from UniProt P19909)			18.9
